Biological target: filamentous actin (F-actin) (not stated (human platelet or rabbit muscle actin)) (UniProt P68135)
Test: co-sedimentation; 0.5 µM NMY-2S1 incubated with different amounts of actin, 150,000 g for 1.5 h at room temperature; percent of NMY-2 S1 in the pellet fitted with a one-site specific binding model

| Substance | Kd |
| --- | --- |
| NMY-2(R252A)S1 (NMY-2 S1 fragment R252A bound to MLC-4 and MLC-5) (from UniProt G5EBY3 1-874; Q09510 1-172; Q9XVI9 1-142) (complex) | 2.46 µM |
| NMY-2(S250A)S1 (NMY-2 S1 fragment S250A bound to MLC-4 and MLC-5) (from UniProt G5EBY3 1-874; Q09510 1-172; Q9XVI9 1-142) (complex) | 0.66 µM |
| NMY-2(S251A)S1 (NMY-2 S1 fragment S251A bound to MLC-4 and MLC-5) (from UniProt G5EBY3 1-874; Q09510 1-172; Q9XVI9 1-142) (complex) | 0.062 µM |
| wild-type NMY-2S1 (NMY-2 S1 fragment bound to MLC-4 and MLC-5) (from UniProt G5EBY3 1-874; Q09510 1-172; Q9XVI9 1-142) (complex) | 0.66 µM |

Reference: article PMC6857588
